Biological target: T1, claudin-19 (human CLDN19), expressed in HEK293 cells (human, UniProt Q8N6F1 1-224)
T1 sequence (looked up): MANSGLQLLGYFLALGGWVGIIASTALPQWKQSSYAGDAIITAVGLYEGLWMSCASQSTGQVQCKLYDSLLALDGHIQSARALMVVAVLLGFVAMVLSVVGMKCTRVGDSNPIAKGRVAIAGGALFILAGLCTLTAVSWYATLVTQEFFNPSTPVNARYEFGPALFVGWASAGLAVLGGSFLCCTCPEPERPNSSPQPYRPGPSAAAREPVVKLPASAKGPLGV
Experiment: cross-linking

stoichiometry N: 1 claudin-16 per claudin-19
B1: claudin-16 (human CLDN16), expressed in HEK293 cells (natural protein, UniProt Q9Y5I7 1-235, looked up)
chain: MRDLLQYIACFFAFFSAGFLIVATWTDCWMVNADDSLEVSTKCRGLWWECVTNAFDGIRTCDEYDSILAEHPLKLVVTRALMITADILAGFGFLTLLLGLDCVKFLPDEPYIKVRICFVAGATLLIAGTPGIIGSVWYAVDVYVERSTLVLHNIFLGIQYKFGWSCWLGMAGSLGCFLAGAVLTCCLYLFKDVGPERNYPYSLRKAYSAAGVSMAKSYSAPRTETAKMYAVDTRV

— publication PMC4666130 (Molecular Biology of the Cell, 2015)
